From patent US20090163411A1 (BOLDER BIOTECHNOLOGY, published 2009)

Molecular target: Recombinant Human Vascular Endothelial Growth Factor (rhVEGF) (human, UniProt P15692-4 27-191, limits assumed)
Test: cell-based or functional assay

Recombinant Human Vascular Endothelial Growth Factor (rhVEGF), sequence (P15692 other isoform, or with tags, fused parts or gaps limits assumed): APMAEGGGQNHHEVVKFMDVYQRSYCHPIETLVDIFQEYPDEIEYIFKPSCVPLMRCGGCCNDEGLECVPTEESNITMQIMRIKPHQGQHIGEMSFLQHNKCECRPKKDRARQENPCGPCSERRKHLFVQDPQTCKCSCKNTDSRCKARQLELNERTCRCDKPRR

Ave Ec50's (ng/ml); inhibition of VEGF-stimulated HUVEC proliferation, BrdU Cell Proliferation assay: 103 ng/mL
B1: sFlt-1(3) N164C (receptor)
chain: SKLKDPELSLKGTQHIMQAGQTLHLQCRGEAAHKWSLPEMVSKESERLSITKSACGRNGKQFCSTLTLNTAQANHTGFYSCKYLAVPTSKKKETESAIYIFISDTGRPFVEMYSEIPEIIHMTEGRELVIPCRVTSPCITVTLKKFPLDTLIPDGKRIIWDSRKGFIISNATYKEIGLLTCEATVNGHLYKTNYLTHRQTNTIIDVQISTPRPVKLLRGHTLVLNCTATTPLNTRVQMTWSYPDEKNKRASVRRRIDQSNSHANIFYSVLTIDKMQNKDKGLYTCRVRSGPSFKSVNTSVHIYDKAFITVKH
